Experimental data published in patent US20160319032A1.

Experiments:
[1] = target: mouse αVβ6 on cells (mouse) (UniProt P43406); experiment: FACS, K562 cells expressing mouse αVβ6 (parental K562: 33)
[2] = target: mouse αVβ6 on cells (mouse) (UniProt P43406); experiment: FACS, purified mAb, transfected HEK-293 (parental: 74)
[3] = target: cynomolgus β6 on transfected HEK-293 cells (cynomolgus); experiment: FACS, purified mAb, transfected HEK-293 (parental: 2)

Chain of mouse αVβ6 on cells (mouse) (P43406 31-1044, chain 1 of 2): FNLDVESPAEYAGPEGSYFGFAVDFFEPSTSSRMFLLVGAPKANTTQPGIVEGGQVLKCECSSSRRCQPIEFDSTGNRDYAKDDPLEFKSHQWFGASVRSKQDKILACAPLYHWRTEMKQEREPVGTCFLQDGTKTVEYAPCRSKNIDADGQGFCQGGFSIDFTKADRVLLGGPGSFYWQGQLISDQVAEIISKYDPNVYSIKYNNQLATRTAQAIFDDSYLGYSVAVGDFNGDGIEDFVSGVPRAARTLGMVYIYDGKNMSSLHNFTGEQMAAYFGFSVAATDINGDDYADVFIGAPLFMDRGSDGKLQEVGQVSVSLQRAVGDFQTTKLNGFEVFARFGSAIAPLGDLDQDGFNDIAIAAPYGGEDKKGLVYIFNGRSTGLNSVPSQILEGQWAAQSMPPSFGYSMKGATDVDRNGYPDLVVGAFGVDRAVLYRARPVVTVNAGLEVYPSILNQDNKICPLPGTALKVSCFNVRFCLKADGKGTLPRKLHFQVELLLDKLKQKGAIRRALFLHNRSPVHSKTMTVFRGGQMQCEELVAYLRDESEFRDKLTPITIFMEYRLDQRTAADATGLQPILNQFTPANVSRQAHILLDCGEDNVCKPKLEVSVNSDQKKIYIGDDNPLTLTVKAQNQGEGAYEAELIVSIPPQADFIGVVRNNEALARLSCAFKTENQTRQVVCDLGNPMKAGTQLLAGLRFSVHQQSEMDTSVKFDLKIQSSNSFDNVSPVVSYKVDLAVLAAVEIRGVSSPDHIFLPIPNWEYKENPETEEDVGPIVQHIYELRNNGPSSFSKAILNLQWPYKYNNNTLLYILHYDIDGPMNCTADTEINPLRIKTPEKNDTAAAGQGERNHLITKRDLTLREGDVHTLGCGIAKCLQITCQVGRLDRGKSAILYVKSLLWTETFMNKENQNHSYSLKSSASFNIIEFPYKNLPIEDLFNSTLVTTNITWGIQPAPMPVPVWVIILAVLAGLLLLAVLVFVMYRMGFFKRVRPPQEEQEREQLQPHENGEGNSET
Chain of mouse αVβ6 on cells (mouse) (Q9Z0T9 22-787, chain 2 of 2, further chain): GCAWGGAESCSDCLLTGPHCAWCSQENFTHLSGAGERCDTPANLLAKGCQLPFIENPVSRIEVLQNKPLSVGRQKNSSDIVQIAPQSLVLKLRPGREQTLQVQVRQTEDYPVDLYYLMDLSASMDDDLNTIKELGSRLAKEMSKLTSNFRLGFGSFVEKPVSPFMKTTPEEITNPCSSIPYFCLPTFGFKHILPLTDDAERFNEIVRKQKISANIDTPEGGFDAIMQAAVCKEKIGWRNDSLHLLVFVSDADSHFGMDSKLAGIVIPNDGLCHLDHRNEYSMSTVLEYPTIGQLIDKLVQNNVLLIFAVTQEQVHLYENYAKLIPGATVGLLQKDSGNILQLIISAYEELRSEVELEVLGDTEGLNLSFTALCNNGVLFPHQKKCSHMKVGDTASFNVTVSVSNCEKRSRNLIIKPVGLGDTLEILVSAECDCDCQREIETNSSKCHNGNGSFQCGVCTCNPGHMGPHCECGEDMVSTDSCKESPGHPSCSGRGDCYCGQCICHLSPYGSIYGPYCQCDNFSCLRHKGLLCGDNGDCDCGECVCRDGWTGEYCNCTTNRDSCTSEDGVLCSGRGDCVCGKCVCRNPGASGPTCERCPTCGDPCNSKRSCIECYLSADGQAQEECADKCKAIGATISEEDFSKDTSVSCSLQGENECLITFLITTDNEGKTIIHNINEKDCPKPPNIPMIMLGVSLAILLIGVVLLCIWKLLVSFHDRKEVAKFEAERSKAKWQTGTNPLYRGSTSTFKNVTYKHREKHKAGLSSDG

B1: sc 264 (antibody, V domains shown)
VH: QVQLQESGPGLVKPSQTLSLTCTVSGGSISSGGYYWSWIRQHPGKGLEWIGYIYYSGRTYNNPSLKSRVTISVDTSKNQFSLKLSSVTAADTAVYYCARVATGRGDYHFYAMDVWGQGTTVTVSS
VL: SYELTQPSSVSVSPGQTARITCSGDVLAKKSARWFHQKPGQAPVLVIYKDSERPSGIPERFSGSSSGTTVTLTISGAQVEDEAAYYCYSAADNNLVFGGGTKLTVL
Geometric Mean Shift (arbitrary units) [1]: 160
percent of cells shifted [2]: 63%

B2: sc 133 (antibody, V domains shown)
VH: QVQLVQSGAEVKKPGASVKVSCKASGYTFTGYYMHWVRQAPGQGLEWMGWINPKSGDTNYAQKFQGRVTLTRDTSTSTAYMELSRLRSDDTAVYYCARRLDVWGQGTTVTVSS
VL: QSVLTQPPSVSAAPGQKVTISCSGSSSNIGNNYVSWYQQLPGTAPKLLIYDNNKRPSGIPDRFSGSKSGTSATLGITGLQTGDEADYYCGTWNSSLSAGYVFGTGTKVTV
percent of cells shifted [3]: 10%
